Biological target: T1, TNFR2-His protein (UniProt P20333 23-461)
T1 chain: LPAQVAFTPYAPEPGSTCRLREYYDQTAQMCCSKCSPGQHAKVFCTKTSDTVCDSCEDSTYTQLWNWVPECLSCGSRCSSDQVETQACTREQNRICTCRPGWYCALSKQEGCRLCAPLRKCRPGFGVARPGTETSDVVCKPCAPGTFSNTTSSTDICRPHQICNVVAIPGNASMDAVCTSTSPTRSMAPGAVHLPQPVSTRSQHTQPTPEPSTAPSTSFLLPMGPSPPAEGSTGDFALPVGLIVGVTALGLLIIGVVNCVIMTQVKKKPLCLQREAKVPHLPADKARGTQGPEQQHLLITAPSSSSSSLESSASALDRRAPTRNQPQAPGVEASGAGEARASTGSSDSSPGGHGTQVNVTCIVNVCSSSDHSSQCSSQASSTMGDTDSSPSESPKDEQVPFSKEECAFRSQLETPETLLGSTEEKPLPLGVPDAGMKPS
Assay: BLI

- Kd: 214 µM
B1: Nanobody-161 IgG1 Y105G (Fc fusion)
chain: EVQLVESGGGLVQPGGSLRLSCAASGSIRFINDMGWYRQAPGKGLELVAAIGRGGGSTNYADSVKGRFTISRDNAKNTLYLQMNSLRAEDTAVYYCHAEISQLGGAFRDYWGQGTLVTVSS

— article PMC12719470 (2025)
